Among the data in article PMC6900541 (Proceedings of the National Academy of Sciences of the …, 2019) are Kd values, retold here.

In the test the target is T1, human PD-L2 ectodomain (human, UniProt Q9BQ51 20-220).
T1 sequence: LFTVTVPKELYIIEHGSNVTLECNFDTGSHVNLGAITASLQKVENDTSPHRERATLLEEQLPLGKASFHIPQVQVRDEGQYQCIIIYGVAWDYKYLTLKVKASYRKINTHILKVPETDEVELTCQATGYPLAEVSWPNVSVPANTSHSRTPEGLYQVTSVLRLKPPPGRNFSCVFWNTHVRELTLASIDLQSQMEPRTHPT
The experiment in a line: BLI.

B1: human PD-1 triple mutant (N74G T76P A132V), PD-1-Fc (Fc fusion)
chain: LDSPDRPWNPPTFSPALLVVTEGDNATFTCSFSNTSESFVLNWYRMSPSGQPDKLAAFPEDRSQPGQDCRFRVTQLPNGRDFHMSVVRARRNDSGTYLCGAISLAPKVQIKESLRAELRVTERRAEVPTAHPSPSPRPAGQFQTLV
As to B1, binding was characterised by a dissociation constant (Kd) of 2.6 nM.
